Data: US9206246B2, “Heparin/heparan sulfate-dependent inhibitors of activated protein C and uses thereof in treating hemophilic disorders” (Academia Sinica, priority 2012, dated 2015)

Assays:
plasmin = test: Euglobulin clot lysis assay; format: biochemical
APC [1] = target: T1, APC (Homo sapiens, UniProt P04070); test: APC inhibition by recombinant DrKIn-I wild type and mutants (S-2366 chromogenic substrate); format: biochemical; details: APC 20 nM, S-2366 0.4 mM
Source text: A: amino acid alignment of the C-terminal regions of the wild-type DrKIn-I peptide and three mutants, which were generated by either deleting or mutating (alanine substitution; denoted by bold letters) one or both of the C-terminus heparin binding motifs. Underlined amino acids are the putative heparin binding motifs. B: SDS-PAGE analysis of the wild-type and mutant DrKIn-I peptides. Wild-type: SEQ ID NO:3. Mutant 1: SEQ ID NO:4. Mutant 2: SEQ ID NO:5. Mutant 3: SEQ ID NO:6. C-D: Inhibitory effect of DrKIn-I wild type (●), mutant 1 (▴), mutant 2 (▾) and mutant 3 (▪) on APC (20 nM) in the presence (C) or absence (D) of heparan sulfate (10 μg/ml). Activity of APC without the addition of inhibitors was considered as 100%.
The wild-type DrKIn-I and the mutants at various concentrations were mixed with APC (20 nM) in the presence of heparin or heparan sulfate (10 μg/ml). After 3 minutes of incubation, a chromogenic substrate S-2366 (0.4 mM) was added and the rate of p-nitroaniline release was monitored at 405 nm for 10 minutes at 37° C. […] On the other hand, Mutants 1 and 2 inhibit APC in the presence of heparin.
Target sequence in this assay (P04070 212-450 limits assumed): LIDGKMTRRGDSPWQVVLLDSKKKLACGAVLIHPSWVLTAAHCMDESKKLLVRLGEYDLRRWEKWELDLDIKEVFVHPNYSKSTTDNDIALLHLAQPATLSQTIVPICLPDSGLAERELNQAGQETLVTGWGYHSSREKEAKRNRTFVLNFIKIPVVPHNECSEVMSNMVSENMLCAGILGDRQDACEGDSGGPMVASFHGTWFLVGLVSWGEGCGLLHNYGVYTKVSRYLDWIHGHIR
Target sequence in this assay (P04070 43-197 limits assumed): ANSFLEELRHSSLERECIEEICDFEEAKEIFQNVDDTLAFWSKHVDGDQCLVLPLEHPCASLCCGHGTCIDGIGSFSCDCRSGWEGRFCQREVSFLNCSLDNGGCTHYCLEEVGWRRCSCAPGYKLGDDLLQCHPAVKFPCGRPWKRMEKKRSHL

[2] = target: T2, human activated protein C (Homo sapiens, UniProt P04070); test: Inhibition of APC amidolytic activity (Spectrozyme PCa chromogenic substrate); format: biochemical
T2 construct: purchased Haematologic Technologies
Protocol: B: Dose-response curves of APC (10 nM) inhibition by DrKIn-I in the absence (◯) and presence (●) of 0.1 U/ml heparin. C: To determine the minimum concentration of heparin required for the potentiation APC inhibition, the activity of APC (20 nM) was measured after the addition of DrKIn-I (20 nM) and varying concentrations of heparin (0-1000 mU/ml). D: To assess the ability of heparan sulfate and the minimum length of heparan sulfate required to potentiate DrKIn-I-mediated APC inhibition, the amidolytic activity of APC was determined in the presence of DrKIn-I (20 nM) and different lengths of heparan sulfate chains (10 μg/ml each). E, Time course of FVa inactivation by APC (1 nM) was assessed in the absence (●) or presence (▪) of 5 nM DrKIn-I, or in the presence of 5 nM DrKIn-I supplemented with 0.1 U/ml heparin (▴), as described in “Materials and methods”. F, The effect of DrKIn-I (0-250 nM) and/or heparin (0.1 U/ml) on APC-mediated FVa inactivation was determined after 10 minutes of incubation at 37° C. with APC (5 nM). Results shown are means±SD of three experiments.
All inhibition assays were performed in 96-wells microtiter plates in 25 mM Tris-HCl (pH 7.4), 150 mM NaCl, 2.5 mM CaCl2 and 5 mg/ml BSA. For comparison between DrKIn-I and DrKIn-II, the amidolytic activity of 10 nM APC, with or without 0.1 U/ml heparin, was assayed in the presence or absence of equal molar concentrations of DrKIn-I or DrKIn-II. Immediately after the addition of APC, Spectrozyme PCa was added and the rates of p-nitroaniline release were monitored at 405 nm for 10 minutes at 37° C. For dose response curves, APC was mixed with different concentrations of DrKIn-I in the presence or absence of heparin. The final concentrations were as follows: APC (10 nM), heparin (0.1 U/ml) and DrKIn-I (0-100 nM in the presence of heparin and 0-12800 nM in the absence of heparin). Dose-response curves were fitted using GraphPad Prism (GraphPad Software). In other inhibition experiments, varying concentrations of heparin ([…]) or different lengths of heparan sulfate chains (10 μg/ml) were added to equimolar concentrations of APC and DrKIn-I (20 nM each). In all the inhibition experiments, Spectrozyme PCa was added to a final concentration of 0.2 mM. Changes in absorbance were measured using SpectraMax M2^e Microplate Reader (Molecular Devices).

[3] = Heparin binding assay (HiTrap Heparin column, NaCl gradient); details: data not shown
Protocol: A: 70 μg of DrKIn-I in 0.1 ml equilibrating buffer (20 mM Tris-HCl, pH 8.0) was applied to a 5 ml HiTrap Heparin column and eluted with a 50 ml gradient from 0.0-1.0 M NaCl. The salt concentration corresponding to the elution peak was determined to be 0.95 M. B, Binding of DrKIn-I (0.78, 1.56, 2.34, 3.13, 4.68 and 6.25 nM) to immobilized APC was assessed in buffer containing 10 mM HEPES, 0.15 M NaCl, 3 mM EDTA and 0.05% P20 at a flow rate of 60 μl/min at 25° C. […] The thin lines represent the global fit to the response data. […] Results shown are means±SD of three experiments. Representative binding traces are shown.

APC [4] = target: T1, APC; details: in the absence of heparin; cited from earlier work
Target sequence in this assay (P04070 212-461 limits assumed): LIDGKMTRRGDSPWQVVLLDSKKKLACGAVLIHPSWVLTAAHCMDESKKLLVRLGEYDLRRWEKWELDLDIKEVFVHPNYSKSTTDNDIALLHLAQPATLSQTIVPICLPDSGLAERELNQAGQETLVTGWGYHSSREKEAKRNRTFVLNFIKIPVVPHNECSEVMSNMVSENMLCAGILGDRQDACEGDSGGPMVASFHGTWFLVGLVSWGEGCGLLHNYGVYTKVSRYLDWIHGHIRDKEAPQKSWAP
Target sequence in this assay (P04070 43-197 limits assumed): as the sequence (P04070 43-197 limits assumed) above

T2 sequence (P04070 212-450 limits assumed): as the sequence (P04070 212-450 limits assumed) above
T2 sequence (P04070 43-197 limits assumed): as the sequence (P04070 43-197 limits assumed) above

Molecule: aprotinin [reference compound]
- prolongation of euglobulin clot lysis time (plasmin; 20 nM inhibitor): ~9 h
- prolongation of euglobulin clot lysis time (plasmin; 100 nM inhibitor): more than 16 hours

Molecule: Mutant 2: Recombinant DrKIn-I deletion mutant Δ60-66 lacking one of the two heparin binding sites (CGGNDNNFETRKKCRQTCGA)
- APC inhibition in the presence of heparin (APC [1]): inhibit APC

Molecule: Mutant 1: Recombinant DrKIn-I mutant R50A/K51A/K52A lacking one of the two heparin binding sites (CGGNDNNFETAAACRQTCGAPRKGRPT)
- APC inhibition in the presence of heparin (APC [1]): inhibit APC

Molecule: heparin [reference compound]
- effect of heparin alone on APC activity ([2]; heparin alone 0.1 U/ml, regardless of the type of substrate (Spectrozyme PCa or FVa)): did not alter the activity of APC

Molecule: DrKIn-II (HDRPTFCNLAPESGRCRAHLRRIYYNLESNKCEVFFYGGCGGNDNNFSTWDECRHTCVGK)
- affinity towards heparin column [3]: no affinity towards heparin column
- inhibitory activity against APC in the absence of heparin ([2]; 10 nM inhibitor, 10 nM APC, no heparin): little inhibitory activity against APC
- decrease of APC activity (inhibition of APC amidolytic activity) ([2]; equimolar inhibitor and APC (10 nM each), 0.1 U/ml heparin, Spectrozyme PCa 0.2 mM): ~20%
- inhibitory activity against APC ([2]; summary statement in discussion): no inhibitory activity against APC

B1: protein C inhibitor: plasma APC inhibitor belonging to the serpin family (protein, UniProt P05154 26-406, looked up)
Plasma serine protease …: EMKKRVEDLHVGATVAPSSRRDFTFDLYRALASAAPSQSIFFSPVSISMSLAMLSLGAGSSTKMQILEGLGLNLQKSSEKELHRGFQQLLQELNQPRDGFQLSLGNALFTDLVVDLQDTFVSAMKTLYLADTFPTNFRDSAGAMKQINDYVAKQTKGKIVDLLKNLDSNAVVIMVNYIFFKAKWETSFNHKGTQEQDFYVTSETVVRVPMMSREDQYHYLLDRNLSCRVVGVPYQGNATALFILPSEGKMQQVENGLSEKTLRKWLKMFKKRQLELYLPKFSIEGSYQLEKVLPSLGISNVFTSHADLSGISNHSNIQVSEMVHKAVVEVDESGTRAAAATGTIFTFRSARLNSQRLVFNRPFLMFIVDNNILFLGKVNRP
- second order rate constant of APC inhibition (APC [4]): 2500 M⁻¹ s⁻¹
